Test results from the supplement of paper PMC9112550, “Optimization of the antimicrobial peptide Bac7 by deep mutational scanning” (BMC Biology, 2022).

Tested on: Escherichia coli TOP10
Test: shrunken log2 fold change of peptide-encoding DNA abundance (4.5 h post-induction vs induction); higher = less antimicrobial activity (less host growth inhibition)
Conditions: time post-induction: 4.5 h; library: site-saturation at positions 5, 18, 19, 20
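Further: peptides expressed intracellularly from a pBAD plasmid library in pooled LB shake-flask culture, induced with 0.3% L-arabinose, DNA abundance read by NGS, three biological replicates, DESeq2 with apeglm shrinkage.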

## RRIRRRPPRLPRPRPRPQCMPRP
  shrunken log2 fold change: -0.0592

## RRIRPRPPRLPRPRPRPKYEPRP
  shrunken log2 fold change: -0.203

## RRIRTRPPRLPRPRPRPMVEPRP
  shrunken log2 fold change: 0.0887

## RRIRARPPRLPRPRPRPYMCPRP
  shrunken log2 fold change: -0.773

## RRIRVRPPRLPRPRPRPWVGPRP
  shrunken log2 fold change: -0.0497

## RRIRTRPPRLPRPRPRPMFKPRP
  shrunken log2 fold change: -0.122

## RRIRVRPPRLPRPRPRPSYHPRP
  shrunken log2 fold change: -0.819

## RRIRHRPPRLPRPRPRPEHKPRP
  shrunken log2 fold change: 0.000824

## RRIRHRPPRLPRPRPRPTEAPRP
  shrunken log2 fold change: -0.00626

## RRIRARPPRLPRPRPRPCVRPRP
  shrunken log2 fold change: 0.135

## RRIRTRPPRLPRPRPRPYTQPRP
  shrunken log2 fold change: -0.434

## RRIRTRPPRLPRPRPRPWHLPRP
  shrunken log2 fold change: -0.0134

## RRIRFRPPRLPRPRPRPSQKPRP
  shrunken log2 fold change: -0.0426

## RRIRKRPPRLPRPRPRPDRKPRP
  shrunken log2 fold change: 0.413

## RRIRIRPPRLPRPRPRPAMTPRP
  shrunken log2 fold change: -0.366

## RRIRRRPPRLPRPRPRPLCTPRP
  shrunken log2 fold change: 0.354

## RRIRNRPPRLPRPRPRPQHQPRP
  shrunken log2 fold change: -0.135

## RRIRRRPPRLPRPRPRPFKKPRP
  shrunken log2 fold change: -0.0451

## RRIRTRPPRLPRPRPRPLIYPRP
  shrunken log2 fold change: -0.174

## RRIRWRPPRLPRPRPRPSCPPRP
  shrunken log2 fold change: -0.33

## RRIRSRPPRLPRPRPRPCNHPRP
  shrunken log2 fold change: -0.361

## RRIRMRPPRLPRPRPRPLIWPRP
  shrunken log2 fold change: 0.246

## RRIRERPPRLPRPRPRPFGRPRP
  shrunken log2 fold change: -0.0419

## RRIRKRPPRLPRPRPRPIWFPRP
  shrunken log2 fold change: -0.0276

## RRIRQRPPRLPRPRPRPCVTPRP
  shrunken log2 fold change: -0.141

## RRIRLRPPRLPRPRPRPKFTPRP
  shrunken log2 fold change: -0.289

## RRIRMRPPRLPRPRPRPVPKPRP
  shrunken log2 fold change: 1.11

## RRIRCRPPRLPRPRPRPCPRPRP
  shrunken log2 fold change: 0.00856

## RRIRWRPPRLPRPRPRPVQHPRP
  shrunken log2 fold change: 0.136

## RRIRMRPPRLPRPRPRPRHEPRP
  shrunken log2 fold change: 0.532

## RRIRFRPPRLPRPRPRPVCFPRP
  shrunken log2 fold change: -0.151

## RRIRIRPPRLPRPRPRPPCEPRP
  shrunken log2 fold change: 0.00219

## RRIRFRPPRLPRPRPRPYMFPRP
  shrunken log2 fold change: -1.11

## RRIRFRPPRLPRPRPRPGVKPRP
  shrunken log2 fold change: -0.0657

## RRIRARPPRLPRPRPRPMYAPRP
  shrunken log2 fold change: 0.207

## RRIRARPPRLPRPRPRPASMPRP
  shrunken log2 fold change: 0.301

## RRIRARPPRLPRPRPRPLHWPRP
  shrunken log2 fold change: 0.387

## RRIRMRPPRLPRPRPRPSNAPRP
  shrunken log2 fold change: 0.405

## RRIRLRPPRLPRPRPRPNAPPRP
  shrunken log2 fold change: 0.0456

## RRIRMRPPRLPRPRPRPAPFPRP
  shrunken log2 fold change: 0.575

## RRIRERPPRLPRPRPRPAYPPRP
  shrunken log2 fold change: -0.403

## RRIRTRPPRLPRPRPRPYCIPRP
  shrunken log2 fold change: -0.205

## RRIRRRPPRLPRPRPRPWLLPRP
  shrunken log2 fold change: 0.0822

## RRIRPRPPRLPRPRPRPQESPRP
  shrunken log2 fold change: -0.0337

## RRIRMRPPRLPRPRPRPYVYPRP
  shrunken log2 fold change: -0.175

## RRIRPRPPRLPRPRPRPRENPRP
  shrunken log2 fold change: 0.672

## RRIRSRPPRLPRPRPRPKQEPRP
  shrunken log2 fold change: 0.286

## RRIRLRPPRLPRPRPRPCLHPRP
  shrunken log2 fold change: -0.113

## RRIRPRPPRLPRPRPRPAWYPRP
  shrunken log2 fold change: 0.0306

## RRIRFRPPRLPRPRPRPYCPPRP
  shrunken log2 fold change: -0.721

## RRIRTRPPRLPRPRPRPTYIPRP
  shrunken log2 fold change: -0.603

## RRIRFRPPRLPRPRPRPMCRPRP
  shrunken log2 fold change: -0.218

## RRIRWRPPRLPRPRPRPTVEPRP
  shrunken log2 fold change: 0.0565

## RRIRTRPPRLPRPRPRPMPAPRP
  shrunken log2 fold change: 0.102

## RRIRPRPPRLPRPRPRPSRVPRP
  shrunken log2 fold change: 0.269

## RRIRWRPPRLPRPRPRPYYNPRP
  shrunken log2 fold change: -1.01

## RRIRMRPPRLPRPRPRPYWYPRP
  shrunken log2 fold change: -0.0684

## RRIRPRPPRLPRPRPRPDVCPRP
  shrunken log2 fold change: -0.00807

## RRIRERPPRLPRPRPRPLSVPRP
  shrunken log2 fold change: -0.642

## RRIRVRPPRLPRPRPRPPRGPRP
  shrunken log2 fold change: 0.665

## RRIRSRPPRLPRPRPRPIYAPRP
  shrunken log2 fold change: 0.0432

## RRIRSRPPRLPRPRPRPPLFPRP
  shrunken log2 fold change: 0.257

## RRIRKRPPRLPRPRPRPAKYPRP
  shrunken log2 fold change: 0.0456

## RRIRHRPPRLPRPRPRPVAAPRP
  shrunken log2 fold change: 0.202

## RRIRGRPPRLPRPRPRPHAIPRP
  shrunken log2 fold change: 0.46

## RRIRFRPPRLPRPRPRPEHCPRP
  shrunken log2 fold change: -0.0154

## RRIRWRPPRLPRPRPRPGSDPRP
  shrunken log2 fold change: 0.661

## RRIRMRPPRLPRPRPRPRMSPRP
  shrunken log2 fold change: 0.353

## RRIRFRPPRLPRPRPRPPGCPRP
  shrunken log2 fold change: 0.453

## RRIRYRPPRLPRPRPRPGQMPRP
  shrunken log2 fold change: -0.553

## RRIRTRPPRLPRPRPRPAPSPRP
  shrunken log2 fold change: 0.231

## RRIRFRPPRLPRPRPRPCTRPRP
  shrunken log2 fold change: 0.0381

## RRIRFRPPRLPRPRPRPTLKPRP
  shrunken log2 fold change: -0.0426

## RRIRGRPPRLPRPRPRPVCGPRP
  shrunken log2 fold change: 0.866

## RRIRIRPPRLPRPRPRPQKPPRP
  shrunken log2 fold change: -0.00327

## RRIRRRPPRLPRPRPRPTDPPRP
  shrunken log2 fold change: 0.246

## RRIRVRPPRLPRPRPRPKHIPRP
  shrunken log2 fold change: -0.47

## RRIRHRPPRLPRPRPRPDFSPRP
  shrunken log2 fold change: -0.0123

## RRIRLRPPRLPRPRPRPWMDPRP
  shrunken log2 fold change: 0.0138

## RRIRCRPPRLPRPRPRPVYVPRP
  shrunken log2 fold change: -0.483

## RRIRDRPPRLPRPRPRPLSAPRP
  shrunken log2 fold change: 0.379

## RRIRLRPPRLPRPRPRPMTVPRP
  shrunken log2 fold change: -0.108

## RRIRMRPPRLPRPRPRPEITPRP
  shrunken log2 fold change: 3.07

## RRIRPRPPRLPRPRPRPAIQPRP
  shrunken log2 fold change: -0.00944

## RRIRARPPRLPRPRPRPFHCPRP
  shrunken log2 fold change: 0.252

## RRIRNRPPRLPRPRPRPCCPPRP
  shrunken log2 fold change: -0.0502

## RRIRLRPPRLPRPRPRPLWQPRP
  shrunken log2 fold change: -0.0523

## RRIRSRPPRLPRPRPRPKHYPRP
  shrunken log2 fold change: -0.233

## RRIRIRPPRLPRPRPRPEAHPRP
  shrunken log2 fold change: 0.0771

## RRIRQRPPRLPRPRPRPSLPPRP
  shrunken log2 fold change: 0.289

## RRIRARPPRLPRPRPRPWLVPRP
  shrunken log2 fold change: 0.0219

## RRIRNRPPRLPRPRPRPQTDPRP
  shrunken log2 fold change: -0.19

## RRIRPRPPRLPRPRPRPWVCPRP
  shrunken log2 fold change: 0.23

## RRIRIRPPRLPRPRPRPQMEPRP
  shrunken log2 fold change: -0.12

## RRIRKRPPRLPRPRPRPMNQPRP
  shrunken log2 fold change: -0.153

## RRIRMRPPRLPRPRPRPTYTPRP
  shrunken log2 fold change: -0.173

## RRIRKRPPRLPRPRPRPSRHPRP
  shrunken log2 fold change: 0.0967

## RRIRPRPPRLPRPRPRPLGWPRP
  shrunken log2 fold change: 0.442

## RRIRVRPPRLPRPRPRPCLFPRP
  shrunken log2 fold change: -0.592

## RRIRCRPPRLPRPRPRPCAGPRP
  shrunken log2 fold change: 0.039

## RRIRFRPPRLPRPRPRPGDQPRP
  shrunken log2 fold change: 0.0789

## RRIRKRPPRLPRPRPRPIKGPRP
  shrunken log2 fold change: -0.141

## RRIRCRPPRLPRPRPRPPKAPRP
  shrunken log2 fold change: -0.112

## RRIRQRPPRLPRPRPRPTAKPRP
  shrunken log2 fold change: 0.151

## RRIRERPPRLPRPRPRPTWMPRP
  shrunken log2 fold change: 0.0534

## RRIRYRPPRLPRPRPRPAPHPRP
  shrunken log2 fold change: -0.247

## RRIRFRPPRLPRPRPRPMPFPRP
  shrunken log2 fold change: -0.0201

## RRIRHRPPRLPRPRPRPGELPRP
  shrunken log2 fold change: 0.0143

## RRIRERPPRLPRPRPRPVERPRP
  shrunken log2 fold change: -0.00844

## RRIRSRPPRLPRPRPRPKQQPRP
  shrunken log2 fold change: 0.741

## RRIRLRPPRLPRPRPRPYKSPRP
  shrunken log2 fold change: 0.0344

## RRIRLRPPRLPRPRPRPKPNPRP
  shrunken log2 fold change: 0.288

## RRIRCRPPRLPRPRPRPIDDPRP
  shrunken log2 fold change: -0.0196

## RRIRSRPPRLPRPRPRPNDSPRP
  shrunken log2 fold change: -0.342

## RRIRYRPPRLPRPRPRPDTVPRP
  shrunken log2 fold change: 0.019

## RRIRFRPPRLPRPRPRPCLYPRP
  shrunken log2 fold change: -0.881

## RRIRCRPPRLPRPRPRPRWNPRP
  shrunken log2 fold change: 2.15

## RRIRRRPPRLPRPRPRPCTIPRP
  shrunken log2 fold change: -0.182

## RRIRWRPPRLPRPRPRPEWPPRP
  shrunken log2 fold change: 0.956

## RRIRERPPRLPRPRPRPFWMPRP
  shrunken log2 fold change: -0.262

## RRIRIRPPRLPRPRPRPLPCPRP
  shrunken log2 fold change: -0.661

## RRIRKRPPRLPRPRPRPRHWPRP
  shrunken log2 fold change: 0.0398

## RRIRNRPPRLPRPRPRPDPTPRP
  shrunken log2 fold change: 0.0817

## RRIRARPPRLPRPRPRPYFEPRP
  shrunken log2 fold change: -0.577

## RRIRIRPPRLPRPRPRPMWLPRP
  shrunken log2 fold change: -0.233

## RRIRVRPPRLPRPRPRPHVYPRP
  shrunken log2 fold change: -0.13

## RRIRDRPPRLPRPRPRPHDNPRP
  shrunken log2 fold change: -0.323

## RRIRYRPPRLPRPRPRPEPGPRP
  shrunken log2 fold change: 0.215

## RRIRNRPPRLPRPRPRPDQHPRP
  shrunken log2 fold change: -0.34

## RRIRYRPPRLPRPRPRPFVKPRP
  shrunken log2 fold change: -0.79

## RRIRFRPPRLPRPRPRPQMSPRP
  shrunken log2 fold change: -0.204

## RRIRFRPPRLPRPRPRPWHLPRP
  shrunken log2 fold change: -0.0307

## RRIRYRPPRLPRPRPRPANGPRP
  shrunken log2 fold change: -0.6

## RRIRIRPPRLPRPRPRPSAKPRP
  shrunken log2 fold change: -0.0328

## RRIRLRPPRLPRPRPRPWKNPRP
  shrunken log2 fold change: -0.114

## RRIRYRPPRLPRPRPRPYFVPRP
  shrunken log2 fold change: -0.858

## RRIRIRPPRLPRPRPRPCIKPRP
  shrunken log2 fold change: -0.185

## RRIRRRPPRLPRPRPRPFKSPRP
  shrunken log2 fold change: -0.336

## RRIRIRPPRLPRPRPRPCYSPRP
  shrunken log2 fold change: -0.0549

## RRIRERPPRLPRPRPRPWAFPRP
  shrunken log2 fold change: -0.165

## RRIRWRPPRLPRPRPRPACWPRP
  shrunken log2 fold change: 0.517

## RRIRMRPPRLPRPRPRPLDHPRP
  shrunken log2 fold change: 0.103

## RRIRCRPPRLPRPRPRPKNRPRP
  shrunken log2 fold change: -0.118

## RRIRHRPPRLPRPRPRPWWGPRP
  shrunken log2 fold change: -0.0666

## RRIRSRPPRLPRPRPRPYQCPRP
  shrunken log2 fold change: -0.00419

## RRIRERPPRLPRPRPRPSYCPRP
  shrunken log2 fold change: -0.715

## RRIRWRPPRLPRPRPRPYVEPRP
  shrunken log2 fold change: -0.446

## RRIRFRPPRLPRPRPRPHGMPRP
  shrunken log2 fold change: -0.00197

## RRIRYRPPRLPRPRPRPWMVPRP
  shrunken log2 fold change: -0.523

## RRIRVRPPRLPRPRPRPQQGPRP
  shrunken log2 fold change: 0.403
